In assay [1] the target is HLA-B*18:01. Nature of the assay: IEDB peptide-MHC binding, purified MHC/direct/fluorescence; filed as Kd, often an IC50 or EC50 that approximates it; ≥ and ≤ were set here for values at or beyond the usual limits of such assays.
Assay [2] has as its target HLA-B*40:01. The assay is described as above. As to conditions: source organism: Influenza A virus (A/SW/MN/12883/00(H1N2)).
Assay [3] concerns the target HLA-B*44:02. Described as above.
The target in assay [4] is HLA-B*18:01. Nature of the assay: IEDB peptide-MHC binding, purified MHC/competitive/radioactivity; filed as Kd, often an IC50 or EC50 that approximates it; ≥ and ≤ were set here for values at or beyond the usual limits of such assays.
Assay [5] has as its target HLA-B*40:01. The assay is described as above.
Another assay deals with HLA-B*40:02. The assay is described as above.
In assay [6] the target is HLA-B*44:02. The description is as above.
In another assay the target is HLA-B*44:03. The description is as above.
The target of the next assay is HLA-B*45:01. The assay is described as above.
For another assay, the target named is HLA-A*24:03. The experiment in a line: IEDB peptide-MHC binding, purified MHC/direct/fluorescence; filed as Kd, often an IC50 or EC50 that approximates it; ≥ and ≤ were set here for values at or beyond the usual limits of such assays. As to conditions: source organism: Mycobacterium tuberculosis.
Another assay deals with HLA-B*15:42. Nature of the assay: IEDB peptide-MHC binding, purified MHC/competitive/fluorescence; filed as Kd, often an IC50 or EC50 that approximates it; ≥ and ≤ were set here for values at or beyond the usual limits of such assays.
A further assay concerns the target HLA-B*45:06. Described as above.
In a further assay the target is HLA-B*83:01. The assay is described as above.
Setting [7] is: source organism: Influenza A virus (A/SW/MN/12883/00(H1N2)).
[8] abbreviates: source organism: Mammarenavirus machupoense.
[9] abbreviates: source organism: Mammarenavirus guanaritoense.
The mark [10] stands for this setting: source organism: SARS coronavirus Tor2.
Setting [11] is: source organism: Mammarenavirus brazilense.
Where [12] appears, read: source organism: Dengue virus 1 Singapore/S275/1990.
Where [13] appears, read: source organism: Mycobacterium tuberculosis H37Rv.
[14] abbreviates: source organism: Mycobacterium tuberculosis C.
The mark [15] stands for this setting: source organism: human gammaherpesvirus 4.
The mark [16] stands for this setting: source organism: Mammarenavirus lassaense.

The source of these data is the Immune Epitope Database (IEDB).

A word on the Kd: it is the equilibrium constant for the complex coming apart. For the sequence NEVGARILT, the Kd with HLA-B*18:01 [1] (setting [7]) was 0.658 µM; in the assay with HLA-B*40:01 [2], ≥ 20 µM; with HLA-B*44:02 [3] (setting [7]), ≥ 20 µM.

Turning to PDIGELFGL, the dissociation constant (Kd) was ≥ 77.5 µM in the assay with HLA-B*18:01 [4] (setting [8]); 12.7 µM in the assay with HLA-B*40:01 [5] (setting [8]); ≥ 22.1 µM with HLA-B*40:02 (setting [8]); ≥ 77.9 µM with HLA-B*44:02 [6] (setting [8]); ≥ 66.6 µM with HLA-B*44:03 (setting [8]); ≥ 77.7 µM with HLA-B*45:01 (setting [8]).

With PEFDWILGWT, the equilibrium dissociation constant (Kd) with HLA-B*18:01 [4] (setting [9]) was ≥ 70.4 µM; in the assay with HLA-B*40:01 [5] (setting [9]), ≥ 69.5 µM; with HLA-B*40:02 (setting [9]) it was ≥ 23.6 µM; with HLA-B*44:02 [6] (setting [9]), ≥ 70.2 µM; with HLA-B*44:03 (setting [9]), ≥ 28.1 µM; with HLA-B*45:01 (setting [9]) it was ≥ 70 µM.

In the assay with HLA-A*24:03, PYIDAADQF displayed a Kd of 0.0912 µM.

With QEAYYRARA, the Kd is ≥ 50.8 µM in the assay with HLA-B*18:01 [4] (setting [10]); 19.9 µM with HLA-B*40:01 [5] (setting [10]); 1.93 µM with HLA-B*40:02 (setting [10]); 6.16 µM in the assay with HLA-B*44:02 [6] (setting [10]); 7.32 µM with HLA-B*44:03 (setting [10]); 0.0151 µM in the assay with HLA-B*45:01 (setting [10]).

Consider QEIQLLAAVG, for which the equilibrium dissociation constant (Kd) with HLA-B*18:01 [4] (setting [10]) is 6.88 µM; in the assay with HLA-B*40:01 [5] (setting [10]) it was 2.01 µM; with HLA-B*40:02 (setting [10]) it was 18 µM; with HLA-B*44:02 [6] (setting [10]) it was 0.883 µM; with HLA-B*44:03 (setting [10]), 0.44 µM; with HLA-B*45:01 (setting [10]), 0.121 µM.

Take QESLTTTSTA: the dissociation constant Kd was ≥ 70.5 µM in the assay with HLA-B*18:01 [4] (setting [10]); 10.2 µM in the assay with HLA-B*40:01 [5] (setting [10]); 0.146 µM with HLA-B*40:02 (setting [10]); 7.11 µM with HLA-B*44:02 [6] (setting [10]); 0.682 µM in the assay with HLA-B*44:03 (setting [10]); 0.0396 µM with HLA-B*45:01 (setting [10]).

For the sequence REIGSLLHGL, the equilibrium dissociation constant (Kd) in the assay with HLA-B*18:01 [4] (setting [11]) is ≥ 30.4 µM; with HLA-B*40:01 [5] (setting [11]), 9.19 µM; with HLA-B*40:02 (setting [11]), 0.00584 µM; with HLA-B*44:02 [6] (setting [11]) it was 0.764 µM; with HLA-B*44:03 (setting [11]) it was 0.878 µM; with HLA-B*45:01 (setting [11]) it was 2.75 µM.

Take RERVNINIV: the dissociation constant Kd is ≥ 37.8 µM in the assay with HLA-B*18:01 [4] (setting [10]); 10.7 µM in the assay with HLA-B*40:01 [5] (setting [10]); 0.026 µM with HLA-B*40:02 (setting [10]); ≥ 35.4 µM with HLA-B*44:02 [6] (setting [10]); ≥ 38.2 µM with HLA-B*44:03 (setting [10]); 0.265 µM in the assay with HLA-B*45:01 (setting [10]).

Regarding SEHTGKEIV, the values for the Kd with HLA-B*18:01 [1] (setting [12]) and with HLA-B*44:02 [3] (setting [12]) were 3.09 µM and ≥ 20 µM, respectively.

SPAAYVLPL: the equilibrium dissociation constant (Kd) in the assay with HLA-B*15:42 (setting [13]) is ≥ 5 µM; in the assay with HLA-B*45:06 (setting [13]) it was ≥ 5 µM; with HLA-B*83:01 (setting [13]), 0.156 µM.

Regarding SVMAIFYLR, the Kd in the assay with HLA-B*15:42 (setting [14]), with HLA-B*45:06 (setting [14]) and in the assay with HLA-B*83:01 (setting [14]) was ≥ 5 µM in each case.

As for TEFQSVTFTM, the Kd with HLA-B*18:01 [4] (setting [8]) amounted to 0.0328 µM; with HLA-B*40:01 [5] (setting [8]), 1.57 µM; in the assay with HLA-B*40:02 (setting [8]), 0.126 µM; with HLA-B*44:02 [6] (setting [8]), 1.16 µM; with HLA-B*44:03 (setting [8]), 0.636 µM; with HLA-B*45:01 (setting [8]) it was 13.6 µM.

As for VESSSKLWA, the dissociation constant (Kd) was 1.25 µM with HLA-B*18:01 [4] (setting [10]); ≥ 42.2 µM with HLA-B*40:01 [5] (setting [10]); 3.16 µM with HLA-B*40:02 (setting [10]); 3.34 µM in the assay with HLA-B*44:02 [6] (setting [10]); 1.6 µM with HLA-B*44:03 (setting [10]); 0.267 µM in the assay with HLA-B*45:01 (setting [10]).

With VPRPRFSAL, the Kd with HLA-B*15:42 (setting [15]) was ≥ 5 µM; with HLA-B*45:06 (setting [15]), ≥ 20 µM; with HLA-B*83:01 (setting [15]), 0.106 µM.

On to YDFVLVGPC, for which the dissociation constant Kd with HLA-B*18:01 [4] (setting [16]) is ≥ 24 µM; with HLA-B*40:01 [5] (setting [16]) it was 3.34 µM; with HLA-B*40:02 (setting [16]) it was 0.836 µM; with HLA-B*44:02 [6] (setting [16]) it was 1 µM; in the assay with HLA-B*44:03 (setting [16]), 6.83 µM; in the assay with HLA-B*45:01 (setting [16]) it was 7.22 µM.

With YDQLLDSSL, the Kd with HLA-B*18:01 [4] (setting [11]) is 15.4 µM; with HLA-B*40:01 [5] (setting [11]) it was 9.99 µM; with HLA-B*40:02 (setting [11]) it was 0.273 µM; in the assay with HLA-B*44:02 [6] (setting [11]), ≥ 26.5 µM; with HLA-B*44:03 (setting [11]), ≥ 78.1 µM; in the assay with HLA-B*45:01 (setting [11]), ≥ 77.7 µM.
